For experiment [1], the target named is acrylodan-labeled FHA domain of PNKP (human) (UniProt Q96T60). Nature of the experiment: other fluorescence titration.
The target of experiment [2] is acrylodan-labeled C-terminal catalytic kinase/phosphatase domain of PNKP (human). Nature of the experiment: other fluorescence titration.

From PMC2811000 come the findings set out here.

The term Kd denotes the constant that tells how readily two partners part at equilibrium. A lower Kd goes with higher affinity. In general, stoichiometry N refers to a count of units in the complex or per binding partner. As to “CK2-phosphorylated XRCC1 (from UniProt P18887 1-633) (natural protein)”, in experiment [1], the AC fluorescence quenching was found to be 50%, the Kd worked out at 3.5 nM and the stoichiometry N turned out to be 1.08. The substance also returned an AC fluorescence quenching in experiment [2] of 8%.
On to “non-phosphorylated XRCC1 (from UniProt P18887 1-633) (natural protein)”, for which the Kd in experiment [2] worked out at 43 nM.
